Paper PMC10659949 (Protein Science : A Publication of the Protein Society, 2023)

Assays:
Conditions in all cases: both partners purified
[1] = molecular target: T1, biotinylated α-cobratoxin from Naja kaouthia (Naja kaouthia, UniProt P01391, biotin (1:1.25 toxin: biotin reagent molar ratio; site not stated)); assay: BLI; […]) in HEPES-MES buffer pH 7.4; dissociation in HEPES-MES pH 7.4; 1:1 binding model, global fit; […]
T1 construct: source: bought: Latoxan (purified, from N. kaouthia), then biotinylated
T1 sequence (P01391 whole entry): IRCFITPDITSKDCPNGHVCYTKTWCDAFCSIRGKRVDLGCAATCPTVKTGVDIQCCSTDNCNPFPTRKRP

[2] = molecular target: T2, biotinylated α-bungarotoxin from Bungarus multicinctus (Bungarus multicinctus, UniProt P60615); assay: BLI
T2 construct: source: bought: Latoxan (purified, from B. multicinctus), then biotinylated
T2 sequence (P60615 22-95): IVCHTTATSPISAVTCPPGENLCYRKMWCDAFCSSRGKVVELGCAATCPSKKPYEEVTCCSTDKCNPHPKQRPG

[3] = molecular target: T1, biotinylated α-cobratoxin from Naja …; assay: BLI; […]; dissociation in HEPES-MES pH 5.5; 1:1 binding model, global fit; […]

B1: Fab TPL0197_01_C08 (Fab, V domains shown)
VH: EVQLVQSGAEVKKPGASVKVSCKASGYTFTSYGISWVRQAPGQGLEWMGWISAYNGNTNYAQKLQGRVTMTTDTSTSTAYMELRSLRSDDTAVYYCAREEYCSSTSCYVGNYYGMDVWGQGTLVTVSS
VL: DIQMTQSPSSLSASVGDRVTITCQASQDISNYLNWYQQKPGKAPKLLIYAASSLESGVPSRFSGSGSGTEFTLTITNLQVDDFATYYCQRYDSNFAFGQGTKVEIK
notes: also called Fab C08; source: ExpiCHO cells, purified (Ni-NTA / HisTrap Excel, desalting)
[1]
  Kd: 44.8 nM
  koff: 0.00076 s⁻¹
[2]
  binding result: no binding (tested: 300 nM)
[3]
  koff: 0.00535 s⁻¹
